Results: publication PMC9295680 (Plant Direct, 2022)
Where two headings read alike, the source gives them in different places. One block for each molecule: values may come before it.

Experiments:
Test in all cases: SEC-MALS
[1] = molecular target: homospermidine synthase (HSS) from Distimake quinquefolius individuum 1 (Distimake quinquefolius)
[2] = molecular target: homospermidine synthase (HSS) from Distimake quinquefolius individuum 2 (Distimake quinquefolius)
[3] = molecular target: homospermidine synthase (HSS) from Ipomoea alba (Ipomoea alba)
[4] = molecular target: the molecule itself
[5] = molecular target: the molecule itself; remark: listed apart in the source

Molecule: homospermidine synthase (HSS) from Distimake quinquefolius individuum 2 (enzyme)
stoichiometry N [2]: 4

B1: homospermidine synthase (HSS) from Camonea umbellata (enzyme, UniProt A0A6M4MJB9 1-377, looked up)
chain: MGEATRDQNSTMDSAHAAVFKKSESLDGACMKIEGYDFNRGIDYPQLLKSLLSTGFQASNLGEAIQIVNEMLDWRLSHEPIMEDCNDKEKDPAYRDSVTTKIFLGFTSNLVSSGVRETIRYLVQHHMVDVVVTTAGGIEEDLIKCLAPTYKGEFSLRGSVLRSKGLNRIGNLLVPNDNYCKFEDWIIPIFDQMYEEQTKQNVLWTPSKVIARLGKEINDESSYLYWAYKNEIPVFCPSLTDGSLGDMLYFHSFTKEVADNSDRNPGLIVDIVGDIRAMDGEAVHAGSRKTGVLILGGGLPKHHICNANMMRNGADFAAYINTAQEFDGSDSGARPDEAVSWGKIRCEAKTVKVHCDATIAFPLLVAETFATKARKLH
stoichiometry N [4]: 2
stoichiometry N [5]: 4

The next lines start with the values.

stoichiometry N [1]: 4
Molecule: homospermidine synthase (HSS) from Distimake quinquefolius individuum 1 (enzyme)

stoichiometry N [3]: 4
Molecule: homospermidine synthase (HSS) from Ipomoea alba (enzyme)
